Laboratory results: article PMC7526893

Molecular target: FLAG-tagged vasodilator-stimulated phosphoprotein (FLAG-VASP), wildtype (human) (UniProt P50552)
Experiment: proximity ligation; 293T cells co-expressing p8-HA and FLAG-VASP or FLAG-N-WASP, fixed with 2% PFA; mouse anti-FLAG and rabbit anti-HA, Duolink In Situ Red kit; dots per positive cell counted

UniProt P50552, sequence (P50552 whole entry): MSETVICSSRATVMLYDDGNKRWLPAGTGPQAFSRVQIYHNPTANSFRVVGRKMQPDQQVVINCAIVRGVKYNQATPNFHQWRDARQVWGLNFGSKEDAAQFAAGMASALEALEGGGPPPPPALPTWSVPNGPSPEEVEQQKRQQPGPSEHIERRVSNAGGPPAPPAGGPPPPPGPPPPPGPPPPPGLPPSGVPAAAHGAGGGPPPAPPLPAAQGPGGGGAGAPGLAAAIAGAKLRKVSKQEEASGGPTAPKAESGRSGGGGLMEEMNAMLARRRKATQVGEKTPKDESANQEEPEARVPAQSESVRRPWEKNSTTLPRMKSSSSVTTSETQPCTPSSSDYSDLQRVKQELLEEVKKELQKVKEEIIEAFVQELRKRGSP

For “HTLV-1 p8 protein, HA-tagged (p8-HA) (natural protein)”, the PLA spots per cell (spots per cell) was 7.
